Results on 20 molecules are retold here after patent publication US20230357343A1 (ASHER BIOTHERAPEUTICS, published 2023).

Bounds are passed on as bounds.

First the molecules themselves.
B1: xhCD8-hIL21 v2 (other)
chain: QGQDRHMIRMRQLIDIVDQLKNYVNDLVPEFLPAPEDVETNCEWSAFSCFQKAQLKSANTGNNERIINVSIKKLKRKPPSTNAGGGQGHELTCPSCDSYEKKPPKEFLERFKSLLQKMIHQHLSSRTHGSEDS
VH: QVHLQQSGPELVKPGASVKMSCKTSGYTFTKYTMHWVKQGHEESLEWIGHFNPNNDETKYNQKFTGKATLTVDKSSTTAYMELRSLTSDDSALYYCARDGLGLRLFADWGQGTLITVSA
VL: DIQMTQSPASLSASVGETVTITCGASENIYGALNWYQRKQGKSPQLLIFGATNLADGVSSRFSGSGSDRQYSLKISSLHPDDVATYYCQNILDTPWTFGGGTKLEIK
notes: hIgG1/kappa; IL-21 part on one heavy-chain C-terminus via (G4S)3 linker; also called exemplary IL-21 polypeptide 2
B2: xhCD8-hIL21 v1 (other)
chain: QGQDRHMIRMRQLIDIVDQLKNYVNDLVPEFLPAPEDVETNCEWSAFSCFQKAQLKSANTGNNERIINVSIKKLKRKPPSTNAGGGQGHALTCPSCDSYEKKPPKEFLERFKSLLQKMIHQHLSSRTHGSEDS
VH: QVHLQQSGPELVKPGASVKMSCKTSGYTFTKYTMHWVKQGHEESLEWIGHFNPNNDETKYNQKFTGKATLTVDKSSTTAYMELRSLTSDDSALYYCARDGLGLRLFADWGQGTLITVSA
VL: DIQMTQSPASLSASVGETVTITCGASENIYGALNWYQRKQGKSPQLLIFGATNLADGVSSRFSGSGSDRQYSLKISSLHPDDVATYYCQNILDTPWTFGGGTKLEIK
notes: hIgG1/kappa; also called exemplary IL-21 polypeptide 1
B3: xhCD8-hIL21 v6 (other)
chain: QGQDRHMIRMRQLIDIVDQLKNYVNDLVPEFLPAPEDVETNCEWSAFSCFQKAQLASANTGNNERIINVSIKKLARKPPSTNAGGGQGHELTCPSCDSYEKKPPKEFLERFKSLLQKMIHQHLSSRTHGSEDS
VH: QVHLQQSGPELVKPGASVKMSCKTSGYTFTKYTMHWVKQGHEESLEWIGHFNPNNDETKYNQKFTGKATLTVDKSSTTAYMELRSLTSDDSALYYCARDGLGLRLFADWGQGTLITVSA
VL: DIQMTQSPASLSASVGETVTITCGASENIYGALNWYQRKQGKSPQLLIFGATNLADGVSSRFSGSGSDRQYSLKISSLHPDDVATYYCQNILDTPWTFGGGTKLEIK
notes: hIgG1/kappa; IL-21 part on one heavy-chain C-terminus via (G4S)3 linker; also called exemplary IL-21 polypeptide 6
B4: xhCD8.1-hIL21 v2.7 (other)
chain: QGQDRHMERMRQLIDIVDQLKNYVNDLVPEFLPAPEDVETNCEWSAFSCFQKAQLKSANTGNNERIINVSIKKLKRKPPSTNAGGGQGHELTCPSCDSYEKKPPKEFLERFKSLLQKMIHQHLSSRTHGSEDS
VH: QVQLVQSGAEVKKPGSSVKVSCKASGGTFSSYAISWVRQAPGQGLEWMGGIIPGYATANYAQKFQGRVTITADESTSTAYMELSSLRSEDTAVYYCARDAAGIRLFADWGQGTLVTVSS
VL: DIQMTQSPSSLSASVGDRVTITCRASQSIYGALNWYQQKPGKAPKLLIYGASNLQSGVPSRFSGSGSGTDFTLTISSLQPEDFATYYCQSTYTAPWTFGGGTKVEIK
notes: hIgG1/kappa; IL-21 part on one heavy-chain C-terminus via (G4S)3 linker
B5: xhCD8.1-hIL21 v2.32 (other)
chain: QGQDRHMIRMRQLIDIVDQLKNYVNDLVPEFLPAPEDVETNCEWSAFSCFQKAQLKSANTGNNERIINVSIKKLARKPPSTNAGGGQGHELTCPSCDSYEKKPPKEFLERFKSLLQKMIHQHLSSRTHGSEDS
VH: QVQLVQSGAEVKKPGSSVKVSCKASGGTFSSYAISWVRQAPGQGLEWMGGIIPGYATANYAQKFQGRVTITADESTSTAYMELSSLRSEDTAVYYCARDAAGIRLFADWGQGTLVTVSS
VL: DIQMTQSPSSLSASVGDRVTITCRASQSIYGALNWYQQKPGKAPKLLIYGASNLQSGVPSRFSGSGSGTDFTLTISSLQPEDFATYYCQSTYTAPWTFGGGTKVEIK
notes: as for B4
B6: xhCD8.1-hIL21 v2.40 (other)
chain: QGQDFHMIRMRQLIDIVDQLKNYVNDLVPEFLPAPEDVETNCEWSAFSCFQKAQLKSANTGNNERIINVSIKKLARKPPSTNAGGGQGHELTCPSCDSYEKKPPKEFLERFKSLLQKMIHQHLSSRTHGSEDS
VH: QVQLVQSGAEVKKPGSSVKVSCKASGGTFSSYAISWVRQAPGQGLEWMGGIIPGYATANYAQKFQGRVTITADESTSTAYMELSSLRSEDTAVYYCARDAAGIRLFADWGQGTLVTVSS
VL: DIQMTQSPSSLSASVGDRVTITCRASQSIYGALNWYQQKPGKAPKLLIYGASNLQSGVPSRFSGSGSGTDFTLTISSLQPEDFATYYCQSTYTAPWTFGGGTKVEIK
notes: as for B4
B7: xhCD8.1-hIL21 v2.58 (other)
chain: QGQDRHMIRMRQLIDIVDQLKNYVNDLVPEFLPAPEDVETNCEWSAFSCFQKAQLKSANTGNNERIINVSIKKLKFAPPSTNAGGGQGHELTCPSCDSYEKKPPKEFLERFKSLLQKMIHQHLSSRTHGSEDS
VH: QVQLVQSGAEVKKPGSSVKVSCKASGGTFSSYAISWVRQAPGQGLEWMGGIIPGYATANYAQKFQGRVTITADESTSTAYMELSSLRSEDTAVYYCARDAAGIRLFADWGQGTLVTVSS
VL: DIQMTQSPSSLSASVGDRVTITCRASQSIYGALNWYQQKPGKAPKLLIYGASNLQSGVPSRFSGSGSGTDFTLTISSLQPEDFATYYCQSTYTAPWTFGGGTKVEIK
notes: as for B4
B8: xhCD8.1-hIL21 v2.9 (other)
chain: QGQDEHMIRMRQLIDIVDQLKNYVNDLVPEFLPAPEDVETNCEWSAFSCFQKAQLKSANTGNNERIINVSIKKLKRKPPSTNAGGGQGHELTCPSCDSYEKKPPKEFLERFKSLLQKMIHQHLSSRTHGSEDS
VH: QVQLVQSGAEVKKPGSSVKVSCKASGGTFSSYAISWVRQAPGQGLEWMGGIIPGYATANYAQKFQGRVTITADESTSTAYMELSSLRSEDTAVYYCARDAAGIRLFADWGQGTLVTVSS
VL: DIQMTQSPSSLSASVGDRVTITCRASQSIYGALNWYQQKPGKAPKLLIYGASNLQSGVPSRFSGSGSGTDFTLTISSLQPEDFATYYCQSTYTAPWTFGGGTKVEIK
notes: as for B4
B9: xhCD8.1-hIL21 v2.28 (other)
chain: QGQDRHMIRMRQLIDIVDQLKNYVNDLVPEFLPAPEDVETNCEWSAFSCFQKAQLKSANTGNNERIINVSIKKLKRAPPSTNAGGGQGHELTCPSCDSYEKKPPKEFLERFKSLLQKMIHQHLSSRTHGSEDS
VH: QVQLVQSGAEVKKPGSSVKVSCKASGGTFSSYAISWVRQAPGQGLEWMGGIIPGYATANYAQKFQGRVTITADESTSTAYMELSSLRSEDTAVYYCARDAAGIRLFADWGQGTLVTVSS
VL: DIQMTQSPSSLSASVGDRVTITCRASQSIYGALNWYQQKPGKAPKLLIYGASNLQSGVPSRFSGSGSGTDFTLTISSLQPEDFATYYCQSTYTAPWTFGGGTKVEIK
notes: as for B4
B10: xhCD8.1-hIL21 v2.38 (other)
chain: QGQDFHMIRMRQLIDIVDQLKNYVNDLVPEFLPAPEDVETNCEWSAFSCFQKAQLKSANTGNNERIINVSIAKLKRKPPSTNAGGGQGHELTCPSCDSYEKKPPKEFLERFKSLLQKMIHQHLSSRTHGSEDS
VH: QVQLVQSGAEVKKPGSSVKVSCKASGGTFSSYAISWVRQAPGQGLEWMGGIIPGYATANYAQKFQGRVTITADESTSTAYMELSSLRSEDTAVYYCARDAAGIRLFADWGQGTLVTVSS
VL: DIQMTQSPSSLSASVGDRVTITCRASQSIYGALNWYQQKPGKAPKLLIYGASNLQSGVPSRFSGSGSGTDFTLTISSLQPEDFATYYCQSTYTAPWTFGGGTKVEIK
notes: as for B4
B11: xhCD8.1-hIL21 v2.34 (other)
chain: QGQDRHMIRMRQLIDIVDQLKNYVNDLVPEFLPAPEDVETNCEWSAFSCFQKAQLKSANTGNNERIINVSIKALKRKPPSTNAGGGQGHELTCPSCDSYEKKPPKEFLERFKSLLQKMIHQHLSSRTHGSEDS
VH: QVQLVQSGAEVKKPGSSVKVSCKASGGTFSSYAISWVRQAPGQGLEWMGGIIPGYATANYAQKFQGRVTITADESTSTAYMELSSLRSEDTAVYYCARDAAGIRLFADWGQGTLVTVSS
VL: DIQMTQSPSSLSASVGDRVTITCRASQSIYGALNWYQQKPGKAPKLLIYGASNLQSGVPSRFSGSGSGTDFTLTISSLQPEDFATYYCQSTYTAPWTFGGGTKVEIK
notes: as for B4
B12: xhCD8.1-hIL21 v2.56 (other)
chain: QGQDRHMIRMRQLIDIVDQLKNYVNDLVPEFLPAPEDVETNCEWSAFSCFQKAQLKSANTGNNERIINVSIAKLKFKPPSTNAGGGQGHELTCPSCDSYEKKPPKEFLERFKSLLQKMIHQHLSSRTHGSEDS
VH: QVQLVQSGAEVKKPGSSVKVSCKASGGTFSSYAISWVRQAPGQGLEWMGGIIPGYATANYAQKFQGRVTITADESTSTAYMELSSLRSEDTAVYYCARDAAGIRLFADWGQGTLVTVSS
VL: DIQMTQSPSSLSASVGDRVTITCRASQSIYGALNWYQQKPGKAPKLLIYGASNLQSGVPSRFSGSGSGTDFTLTISSLQPEDFATYYCQSTYTAPWTFGGGTKVEIK
notes: as for B4
B13: xhCD8.1-hIL21 v2.29 (other)
chain: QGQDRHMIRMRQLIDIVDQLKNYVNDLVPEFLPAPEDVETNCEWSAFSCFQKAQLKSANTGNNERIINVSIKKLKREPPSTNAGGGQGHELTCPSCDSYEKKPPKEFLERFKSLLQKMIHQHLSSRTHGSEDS
VH: QVQLVQSGAEVKKPGSSVKVSCKASGGTFSSYAISWVRQAPGQGLEWMGGIIPGYATANYAQKFQGRVTITADESTSTAYMELSSLRSEDTAVYYCARDAAGIRLFADWGQGTLVTVSS
VL: DIQMTQSPSSLSASVGDRVTITCRASQSIYGALNWYQQKPGKAPKLLIYGASNLQSGVPSRFSGSGSGTDFTLTISSLQPEDFATYYCQSTYTAPWTFGGGTKVEIK
notes: as for B4
B14: xhCD8.1-hIL21 v2.31 (other)
chain: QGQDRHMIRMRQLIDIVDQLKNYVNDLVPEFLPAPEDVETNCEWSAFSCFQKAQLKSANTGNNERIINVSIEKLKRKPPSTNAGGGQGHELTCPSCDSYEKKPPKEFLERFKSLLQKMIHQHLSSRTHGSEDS
VH: QVQLVQSGAEVKKPGSSVKVSCKASGGTFSSYAISWVRQAPGQGLEWMGGIIPGYATANYAQKFQGRVTITADESTSTAYMELSSLRSEDTAVYYCARDAAGIRLFADWGQGTLVTVSS
VL: DIQMTQSPSSLSASVGDRVTITCRASQSIYGALNWYQQKPGKAPKLLIYGASNLQSGVPSRFSGSGSGTDFTLTISSLQPEDFATYYCQSTYTAPWTFGGGTKVEIK
notes: as for B4
B15: xhCD8.1-hIL21 v2.41 (other)
chain: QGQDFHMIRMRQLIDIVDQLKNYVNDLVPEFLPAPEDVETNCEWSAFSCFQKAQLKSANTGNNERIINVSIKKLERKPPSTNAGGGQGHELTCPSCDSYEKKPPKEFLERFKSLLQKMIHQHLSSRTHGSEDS
VH: QVQLVQSGAEVKKPGSSVKVSCKASGGTFSSYAISWVRQAPGQGLEWMGGIIPGYATANYAQKFQGRVTITADESTSTAYMELSSLRSEDTAVYYCARDAAGIRLFADWGQGTLVTVSS
VL: DIQMTQSPSSLSASVGDRVTITCRASQSIYGALNWYQQKPGKAPKLLIYGASNLQSGVPSRFSGSGSGTDFTLTISSLQPEDFATYYCQSTYTAPWTFGGGTKVEIK
notes: as for B4
B16: xhCD8.1-hIL21 v2.37 (other)
chain: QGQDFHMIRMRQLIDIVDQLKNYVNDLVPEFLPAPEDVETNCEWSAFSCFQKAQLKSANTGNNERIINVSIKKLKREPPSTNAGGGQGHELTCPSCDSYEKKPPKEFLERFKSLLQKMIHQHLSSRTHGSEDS
VH: QVQLVQSGAEVKKPGSSVKVSCKASGGTFSSYAISWVRQAPGQGLEWMGGIIPGYATANYAQKFQGRVTITADESTSTAYMELSSLRSEDTAVYYCARDAAGIRLFADWGQGTLVTVSS
VL: DIQMTQSPSSLSASVGDRVTITCRASQSIYGALNWYQQKPGKAPKLLIYGASNLQSGVPSRFSGSGSGTDFTLTISSLQPEDFATYYCQSTYTAPWTFGGGTKVEIK
notes: as for B4
B17: xhCD8.1-hIL21 v2.39 (other)
chain: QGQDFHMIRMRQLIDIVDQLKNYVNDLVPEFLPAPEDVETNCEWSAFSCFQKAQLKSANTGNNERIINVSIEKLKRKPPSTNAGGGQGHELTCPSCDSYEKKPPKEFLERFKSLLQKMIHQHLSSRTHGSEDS
VH: QVQLVQSGAEVKKPGSSVKVSCKASGGTFSSYAISWVRQAPGQGLEWMGGIIPGYATANYAQKFQGRVTITADESTSTAYMELSSLRSEDTAVYYCARDAAGIRLFADWGQGTLVTVSS
VL: DIQMTQSPSSLSASVGDRVTITCRASQSIYGALNWYQQKPGKAPKLLIYGASNLQSGVPSRFSGSGSGTDFTLTISSLQPEDFATYYCQSTYTAPWTFGGGTKVEIK
notes: as for B4
B18: xhCD8.1-hIL21 v2.33 (other)
chain: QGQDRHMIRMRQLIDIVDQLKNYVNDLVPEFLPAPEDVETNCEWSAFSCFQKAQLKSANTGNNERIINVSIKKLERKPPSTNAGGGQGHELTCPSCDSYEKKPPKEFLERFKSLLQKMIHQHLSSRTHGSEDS
VH: QVQLVQSGAEVKKPGSSVKVSCKASGGTFSSYAISWVRQAPGQGLEWMGGIIPGYATANYAQKFQGRVTITADESTSTAYMELSSLRSEDTAVYYCARDAAGIRLFADWGQGTLVTVSS
VL: DIQMTQSPSSLSASVGDRVTITCRASQSIYGALNWYQQKPGKAPKLLIYGASNLQSGVPSRFSGSGSGTDFTLTISSLQPEDFATYYCQSTYTAPWTFGGGTKVEIK
notes: as for B4
B19: xhCD8.1-hIL21 v2.36 (other)
chain: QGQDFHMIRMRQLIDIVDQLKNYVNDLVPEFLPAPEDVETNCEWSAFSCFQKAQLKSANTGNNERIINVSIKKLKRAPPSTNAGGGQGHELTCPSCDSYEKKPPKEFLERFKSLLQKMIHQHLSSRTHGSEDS
VH: QVQLVQSGAEVKKPGSSVKVSCKASGGTFSSYAISWVRQAPGQGLEWMGGIIPGYATANYAQKFQGRVTITADESTSTAYMELSSLRSEDTAVYYCARDAAGIRLFADWGQGTLVTVSS
VL: DIQMTQSPSSLSASVGDRVTITCRASQSIYGALNWYQQKPGKAPKLLIYGASNLQSGVPSRFSGSGSGTDFTLTISSLQPEDFATYYCQSTYTAPWTFGGGTKVEIK
notes: as for B4
B20: xhCD8.1-hIL21 v2.30 (other)
chain: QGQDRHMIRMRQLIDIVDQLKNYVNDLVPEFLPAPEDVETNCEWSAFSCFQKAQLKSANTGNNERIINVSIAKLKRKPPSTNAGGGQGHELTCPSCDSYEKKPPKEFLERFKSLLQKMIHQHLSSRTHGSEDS
VH: QVQLVQSGAEVKKPGSSVKVSCKASGGTFSSYAISWVRQAPGQGLEWMGGIIPGYATANYAQKFQGRVTITADESTSTAYMELSSLRSEDTAVYYCARDAAGIRLFADWGQGTLVTVSS
VL: DIQMTQSPSSLSASVGDRVTITCRASQSIYGALNWYQQKPGKAPKLLIYGASNLQSGVPSRFSGSGSGTDFTLTISSLQPEDFATYYCQSTYTAPWTFGGGTKVEIK
notes: as for B4
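Wherever koff is given: biacore SPR with anti-human IgG Fc surface and blank flow cell as reference, 10 min dissociation, double-referenced, 1:1 Langmuir fit with mass transport, triplicate runs.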
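Wherever kon is given: biacore SPR with anti-human IgG Fc surface and blank flow cell as reference, 10 min dissociation, double-referenced, 1:1 Langmuir fit with mass transport, triplicate runs.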

T1 sequence (Q9HBE5 20-232 limits assumed): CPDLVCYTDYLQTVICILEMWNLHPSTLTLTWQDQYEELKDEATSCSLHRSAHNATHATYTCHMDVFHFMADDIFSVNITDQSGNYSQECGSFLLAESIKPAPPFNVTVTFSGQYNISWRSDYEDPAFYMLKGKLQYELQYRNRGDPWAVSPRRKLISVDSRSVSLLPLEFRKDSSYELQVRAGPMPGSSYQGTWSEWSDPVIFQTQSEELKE

One assay concerns the target T1, Human IL-21R (Biolegend, Catalog No. 773104) (human, UniProt Q9HBE5 20-232, limits assumed).
T1 construct: Bought protein; also called IL-21 receptor
The assay can be described thus: SPR 37 C, Fc-captured fusion.
Usually Kd stands for a measure of binding affinity in units of concentration. The koff is a measure of how fast the partners let go of each other. High values mean fast dissociation, low ones slow dissociation. For orientation: kon means the second-order rate constant of association. The low end stands for slower complex formation, the high end for faster complex formation. As to B1, the equilibrium dissociation constant (Kd) was 0.122 nM, the koff is 0.0011 s⁻¹ and the kon was found to be 8.9e+06 M⁻¹ s⁻¹. For the molecule B2, binding was put at a Kd of 0.117 nM, the koff was 0.00097 s⁻¹ and the kon was 8.3e+06 M⁻¹ s⁻¹.

Take B3: the Kd worked out at 0.478 nM, the koff worked out at 0.0025 s⁻¹ and the kon stood at 5.2e+06 M⁻¹ s⁻¹.

In another assay the target is recombinant human IL-21R, extracellular domain fused to 8xHistidine tag (generated in house) (human, UniProt Q9HBE5 20-232). The assay can be described thus: SPR 37 C, Fc-captured fusion.
Chain of recombinant human IL-21R, extracellular domain fused to 8xHistidine tag (generated in house) (Q9HBE5 other isoform, or with tags, fused parts or gaps limits assumed): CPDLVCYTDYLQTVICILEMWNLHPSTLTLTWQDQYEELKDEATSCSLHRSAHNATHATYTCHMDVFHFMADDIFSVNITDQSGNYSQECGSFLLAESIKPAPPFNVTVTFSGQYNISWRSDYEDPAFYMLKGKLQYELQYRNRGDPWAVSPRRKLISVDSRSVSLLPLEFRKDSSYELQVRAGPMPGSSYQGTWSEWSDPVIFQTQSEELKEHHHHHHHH
As for B4, the Kd came to 156 nM. Still for that read-out and setting: to B5 belongs 0.236 nM.

Regarding B6, the Kd stood at 54.7 nM. On to B7, for which the Kd stood at 420 nM. The same measure, in the same setting: the figure for B8 is 420 nM; for B9 it is 0.693 nM. As for B10, the Kd turned out to be 66.9 nM. Take B11: the Kd was determined as 2 nM.

On to B12, for which the Kd came out at 156 nM.

For the molecule B13, the Kd is 2.8 nM. On the same count and under the same terms, to B14 belongs 3.4 nM. Still for that read-out and setting: to B15 belongs 104 nM; to B16, 601 nM. As to B17, the Kd turned out to be 614 nM. Still for that read-out and setting: the figure for B18 is 1.3 nM. On the same count and under the same terms, the figure for B19 is 125 nM. Same read-out and setting: to B20 belongs 0.419 nM.

In another assay the target is T1, Human IL-21R (Biolegend, Catalog No. …). The assay can be described thus: SPR 37 C.
With B1, the “fold difference in IL-21R affinity against wild type IL-21” value (shortened to “fold difference in IL-21R affinity”) is at most 2 fold.

Take B2: the “fold difference in IL-21R affinity” value was at most 2 fold. B3: the “fold difference in IL-21R affinity” value is about 3 fold.
